Experimental data reported in IntAct's records for PubMed 20030366.

Legend:
apoe_human APOE = apoe_human APOE (UniProt P02649)
amrp_human LRPAP1 [1] = target: amrp_human LRPAP1 (UniProt P30533)
amrp_human LRPAP1 [2] = target: amrp_human LRPAP1 (UniProt P30533); remark: listed apart in the source

Sequence of amrp_human LRPAP1 (P30533 whole entry): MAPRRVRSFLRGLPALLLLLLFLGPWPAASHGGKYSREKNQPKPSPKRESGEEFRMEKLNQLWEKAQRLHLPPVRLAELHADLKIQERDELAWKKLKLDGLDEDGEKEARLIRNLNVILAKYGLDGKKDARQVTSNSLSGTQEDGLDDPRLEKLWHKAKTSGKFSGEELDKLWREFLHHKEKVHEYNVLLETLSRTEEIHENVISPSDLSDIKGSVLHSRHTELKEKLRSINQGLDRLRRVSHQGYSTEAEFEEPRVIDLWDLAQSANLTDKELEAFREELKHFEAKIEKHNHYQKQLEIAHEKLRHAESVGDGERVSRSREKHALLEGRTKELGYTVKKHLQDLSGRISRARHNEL
Sequence of apoe_human APOE (P02649 whole entry): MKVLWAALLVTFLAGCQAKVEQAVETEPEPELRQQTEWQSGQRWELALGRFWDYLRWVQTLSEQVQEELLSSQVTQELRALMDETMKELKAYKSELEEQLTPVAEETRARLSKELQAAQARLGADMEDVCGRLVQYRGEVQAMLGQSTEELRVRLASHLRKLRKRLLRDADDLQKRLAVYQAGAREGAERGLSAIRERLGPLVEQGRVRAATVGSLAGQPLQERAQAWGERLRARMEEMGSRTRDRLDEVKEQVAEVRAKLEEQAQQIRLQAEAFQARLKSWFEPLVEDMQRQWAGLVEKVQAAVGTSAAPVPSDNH

Substance	effect of a mutation on the interaction (apoe_human APOE)	effect of a mutation on the interaction (amrp_human LRPAP1 [1])	effect of a mutation on the interaction (amrp_human LRPAP1 [2])
Prolow-density lipoprotein receptor-related protein 1 (Homo sapiens), Q07954 D2797A	decreasing interaction strength	decreasing interaction strength	
Prolow-density lipoprotein receptor-related protein 1 (Homo sapiens), Q07954 D2797A;D2840A			decreasing interaction strength
